In patent publication US20180155451A1 (published 2018):

Tests used:
[1] = biological target: T1, FcγRIa extracellular domain with C-terminal His tag (human, UniProt P12314 16-292); assay: SPR (Biacore); He/Con_1a divided by He/Con_2b (FcγRIIb)
T1 construct: extracellular domain; Soluble receptor expressed in FreeStyle293 cells; analyte in Biacore; also called FcgRI; FcgRIa; not shown: His tag at the C terminus
Procedure, shortened: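 Surface plasmon resonance on a Biacore T100 measured FcγR interaction with antibodies bound to immobilized antigen peptide, at 25 °C in HBS-EP+.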

[2] = biological target: T2, FcγRIIb extracellular domain with C-terminal His tag (human, UniProt P31994 43-217); assay: SPR (Biacore), antibody captured on antigen peptide chip, FcγR as analyte; binding relative to GpH7-A5/GpH7-B3/GpL16-k0 = 100
T2 construct: extracellular domain; Soluble receptor expressed in FreeStyle293 cells; analyte in Biacore; also called FcgRIIb; 2b; not shown: His tag at the C terminus
T2 sequence (looked up): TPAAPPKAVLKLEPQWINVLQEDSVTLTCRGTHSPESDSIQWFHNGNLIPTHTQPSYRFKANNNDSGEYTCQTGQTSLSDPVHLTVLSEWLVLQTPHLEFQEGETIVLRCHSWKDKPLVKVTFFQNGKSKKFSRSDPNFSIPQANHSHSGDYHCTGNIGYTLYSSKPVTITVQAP

[3] = biological target: T1, FcγRIa extracellular domain with …; assay: as above
[4] = biological target: T3, FcγRIIb, extracellular domain with C-terminal His tag (human, UniProt P31994 43-217); assay: SPR Biacore, captured antibody, FcgR analyte; GpH7-A5/GpH7-B3/GpL16-k0 = 100
T3 construct: extracellular domain; Expressed in FreeStyle293 cells; analyte in the Biacore assay; also called FcgRIIb; 2b; not shown: His tag at the C terminus
T3 sequence (looked up): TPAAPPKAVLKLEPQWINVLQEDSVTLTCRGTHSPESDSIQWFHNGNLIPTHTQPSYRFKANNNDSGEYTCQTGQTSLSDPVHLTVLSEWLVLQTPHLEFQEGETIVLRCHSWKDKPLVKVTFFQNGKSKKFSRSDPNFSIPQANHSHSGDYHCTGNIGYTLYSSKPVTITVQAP

[5] = biological target: T4, FcγRIIa H (FcγRIIa type H, His at position 131), extracellular domain with C-terminal His tag (human, UniProt P12318 34-217); assay: as above
T4 construct: extracellular domain; Expressed in FreeStyle293 cells; analyte in the Biacore assay; also called FcgRIIa H; 2aH; not shown: His tag at the C terminus
T4 sequence (looked up): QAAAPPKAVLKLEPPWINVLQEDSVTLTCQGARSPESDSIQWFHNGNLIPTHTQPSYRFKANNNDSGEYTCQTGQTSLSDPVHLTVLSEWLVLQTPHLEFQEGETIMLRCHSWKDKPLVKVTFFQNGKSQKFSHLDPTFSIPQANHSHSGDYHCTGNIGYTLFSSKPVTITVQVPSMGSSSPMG

[6] = biological target: T4, FcγRIIa H (FcγRIIa type H, His at …); assay: SPR Biacore; He/Con_2aH divided by He/Con_2b (reference: FcgRIIb)

T1 sequence (P12314 16-292): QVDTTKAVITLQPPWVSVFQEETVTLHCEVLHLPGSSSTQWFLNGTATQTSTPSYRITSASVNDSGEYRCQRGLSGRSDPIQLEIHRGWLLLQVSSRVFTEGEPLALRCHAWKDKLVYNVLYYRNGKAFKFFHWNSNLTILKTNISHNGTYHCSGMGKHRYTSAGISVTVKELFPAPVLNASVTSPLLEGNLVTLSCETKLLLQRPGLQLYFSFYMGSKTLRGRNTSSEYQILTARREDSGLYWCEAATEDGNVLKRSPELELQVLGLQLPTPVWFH

Binder	He_1a/2b (Ia/IIb) [1]	He/Con_2b (IIb binding) [2]	He/Con_1a (Ia binding) [3]	He/Con_2b [4]	He/Con_2aH [5]	He_2aH/2b (IIaH/IIb) [6]
GpH7-A5/GpH7-B3 variant P329_13S/GpL16-k0 (antibody, human IgG1, kappa, He Ab: heterodimerized anti-glypican-3 IgG1, substitution in one H chain only; also called He Ab P329S) heavy 1: not shown heavy 2: not shown light: DIVMTQSPLSLPVTPGEPASISCQASESLVHSNRNTYLHWYLQKPGQSPQLLIYKVSNRFSGVPDRFSGSGSGTDFTLKISRVEAEDVGVYYCSQNTHVPPTFGQGTKVEIERTVAAPSVFIFPPSDEQLKSGTASVVCLLNNFYPREAKVQWKVDNALQSGNSQESVTEQDSKDSTYSLSSTLTLSKADYEKHKVYACEVTHQGLSSPVTKSFNRGEC	2.27	41 % of control (control = 100)	93.3 % of control (control = 100)			
GpH7-A5/GpH7-B3 variant P329_01G/GpL16-k0 (antibody, human IgG1, kappa, He Ab; IgG1; mutation in one H chain only; also called He Ab) heavy 1: not shown heavy 2: not shown light: DIVMTQSPLSLPVTPGEPASISCQASESLVHSNRNTYLHWYLQKPGQSPQLLIYKVSNRFSGVPDRFSGSGSGTDFTLKISRVEAEDVGVYYCSQNTHVPPTFGQGTKVEIERTVAAPSVFIFPPSDEQLKSGTASVVCLLNNFYPREAKVQWKVDNALQSGNSQESVTEQDSKDSTYSLSSTLTLSKADYEKHKVYACEVTHQGLSSPVTKSFNRGEC				41.7 % of HeCon Ab	54.9 % of HeCon Ab	1.32
GpH7-A5/GpH7-B3 variant P329_20W/GpL16-k0 (antibody, human IgG1, kappa, He Ab: heterodimerized anti-glypican-3 IgG1, substitution in one H chain only; also called He Ab P329W) heavy 1: not shown heavy 2: not shown light: DIVMTQSPLSLPVTPGEPASISCQASESLVHSNRNTYLHWYLQKPGQSPQLLIYKVSNRFSGVPDRFSGSGSGTDFTLKISRVEAEDVGVYYCSQNTHVPPTFGQGTKVEIERTVAAPSVFIFPPSDEQLKSGTASVVCLLNNFYPREAKVQWKVDNALQSGNSQESVTEQDSKDSTYSLSSTLTLSKADYEKHKVYACEVTHQGLSSPVTKSFNRGEC	2.15	45.1 % of control (control = 100)	96.9 % of control (control = 100)			
GpH7-A5/GpH7-B3 variant P329_15Y/GpL16-k0 (antibody, human IgG1, kappa, He Ab: heterodimerized anti-glypican-3 IgG1, substitution in one H chain only; also called He Ab P329Y) heavy 1: not shown heavy 2: not shown light: DIVMTQSPLSLPVTPGEPASISCQASESLVHSNRNTYLHWYLQKPGQSPQLLIYKVSNRFSGVPDRFSGSGSGTDFTLKISRVEAEDVGVYYCSQNTHVPPTFGQGTKVEIERTVAAPSVFIFPPSDEQLKSGTASVVCLLNNFYPREAKVQWKVDNALQSGNSQESVTEQDSKDSTYSLSSTLTLSKADYEKHKVYACEVTHQGLSSPVTKSFNRGEC	2.09	45.7 % of control (control = 100)	95.6 % of control (control = 100)			
GpH7-A5/GpH7-B3 variant A327_04F/GpL16-k0 (antibody, human IgG1, kappa, He Ab; IgG1; mutation in one H chain only; also called He Ab) heavy 1: not shown heavy 2: not shown light: DIVMTQSPLSLPVTPGEPASISCQASESLVHSNRNTYLHWYLQKPGQSPQLLIYKVSNRFSGVPDRFSGSGSGTDFTLKISRVEAEDVGVYYCSQNTHVPPTFGQGTKVEIERTVAAPSVFIFPPSDEQLKSGTASVVCLLNNFYPREAKVQWKVDNALQSGNSQESVTEQDSKDSTYSLSSTLTLSKADYEKHKVYACEVTHQGLSSPVTKSFNRGEC				63.7 % of HeCon Ab	84.4 % of HeCon Ab	1.32
GpH7-A5/GpH7-B3 variant P329_19Q/GpL16-k0 (antibody, human IgG1, kappa, He Ab: heterodimerized anti-glypican-3 IgG1, substitution in one H chain only; also called He Ab P329Q) heavy 1: not shown heavy 2: not shown light: DIVMTQSPLSLPVTPGEPASISCQASESLVHSNRNTYLHWYLQKPGQSPQLLIYKVSNRFSGVPDRFSGSGSGTDFTLKISRVEAEDVGVYYCSQNTHVPPTFGQGTKVEIERTVAAPSVFIFPPSDEQLKSGTASVVCLLNNFYPREAKVQWKVDNALQSGNSQESVTEQDSKDSTYSLSSTLTLSKADYEKHKVYACEVTHQGLSSPVTKSFNRGEC	2.31	30.7 % of control (control = 100)	70.7 % of control (control = 100)			
GpH7-A5/GpH7-B3 variant P329_16H/GpL16-k0 (antibody, human IgG1, kappa, He Ab: heterodimerized anti-glypican-3 IgG1, substitution in one H chain only; also called He Ab P329H) heavy 1: not shown heavy 2: not shown light: DIVMTQSPLSLPVTPGEPASISCQASESLVHSNRNTYLHWYLQKPGQSPQLLIYKVSNRFSGVPDRFSGSGSGTDFTLKISRVEAEDVGVYYCSQNTHVPPTFGQGTKVEIERTVAAPSVFIFPPSDEQLKSGTASVVCLLNNFYPREAKVQWKVDNALQSGNSQESVTEQDSKDSTYSLSSTLTLSKADYEKHKVYACEVTHQGLSSPVTKSFNRGEC	2.45	39.1 % of control (control = 100)	95.6 % of control (control = 100)			
GpH7-A5/GpH7-B3 variant A327_06M/GpL16-k0 (antibody, human IgG1, kappa, He Ab; IgG1; mutation in one H chain only; also called He Ab) heavy 1: not shown heavy 2: not shown light: DIVMTQSPLSLPVTPGEPASISCQASESLVHSNRNTYLHWYLQKPGQSPQLLIYKVSNRFSGVPDRFSGSGSGTDFTLKISRVEAEDVGVYYCSQNTHVPPTFGQGTKVEIERTVAAPSVFIFPPSDEQLKSGTASVVCLLNNFYPREAKVQWKVDNALQSGNSQESVTEQDSKDSTYSLSSTLTLSKADYEKHKVYACEVTHQGLSSPVTKSFNRGEC				59.5 % of HeCon Ab	75.5 % of HeCon Ab	1.27
GpH7-A5/GpH7-B3 variant P329_14T/GpL16-k0 (antibody, human IgG1, kappa, He Ab: heterodimerized anti-glypican-3 IgG1, substitution in one H chain only; also called He Ab P329T) heavy 1: not shown heavy 2: not shown light: DIVMTQSPLSLPVTPGEPASISCQASESLVHSNRNTYLHWYLQKPGQSPQLLIYKVSNRFSGVPDRFSGSGSGTDFTLKISRVEAEDVGVYYCSQNTHVPPTFGQGTKVEIERTVAAPSVFIFPPSDEQLKSGTASVVCLLNNFYPREAKVQWKVDNALQSGNSQESVTEQDSKDSTYSLSSTLTLSKADYEKHKVYACEVTHQGLSSPVTKSFNRGEC	2.37	37.9 % of control (control = 100)	89.7 % of control (control = 100)			
GpH7-A5/GpH7-B3 variant T335_12R/GpL16-k0 (antibody, human IgG1, kappa, He Ab: heterodimerized anti-glypican-3 IgG1, substitution in one H chain only; also called He Ab T335R) heavy 1: not shown heavy 2: not shown light: DIVMTQSPLSLPVTPGEPASISCQASESLVHSNRNTYLHWYLQKPGQSPQLLIYKVSNRFSGVPDRFSGSGSGTDFTLKISRVEAEDVGVYYCSQNTHVPPTFGQGTKVEIERTVAAPSVFIFPPSDEQLKSGTASVVCLLNNFYPREAKVQWKVDNALQSGNSQESVTEQDSKDSTYSLSSTLTLSKADYEKHKVYACEVTHQGLSSPVTKSFNRGEC	1.23	91.9 % of control (control = 100)	113 % of control (control = 100)			
GpH7-A5/GpH7-B3 variant P329_18N/GpL16-k0 (antibody, human IgG1, kappa, He Ab: heterodimerized anti-glypican-3 IgG1, substitution in one H chain only; also called He Ab P329N) heavy 1: not shown heavy 2: not shown light: DIVMTQSPLSLPVTPGEPASISCQASESLVHSNRNTYLHWYLQKPGQSPQLLIYKVSNRFSGVPDRFSGSGSGTDFTLKISRVEAEDVGVYYCSQNTHVPPTFGQGTKVEIERTVAAPSVFIFPPSDEQLKSGTASVVCLLNNFYPREAKVQWKVDNALQSGNSQESVTEQDSKDSTYSLSSTLTLSKADYEKHKVYACEVTHQGLSSPVTKSFNRGEC	2.29	40.4 % of control (control = 100)	92.4 % of control (control = 100)			
GpH7-A5/GpH7-B3 variant T335_11K/GpL16-k0 (antibody, human IgG1, kappa, He Ab: heterodimerized anti-glypican-3 IgG1, substitution in one H chain only; also called He Ab T335K) heavy 1: not shown heavy 2: not shown light: DIVMTQSPLSLPVTPGEPASISCQASESLVHSNRNTYLHWYLQKPGQSPQLLIYKVSNRFSGVPDRFSGSGSGTDFTLKISRVEAEDVGVYYCSQNTHVPPTFGQGTKVEIERTVAAPSVFIFPPSDEQLKSGTASVVCLLNNFYPREAKVQWKVDNALQSGNSQESVTEQDSKDSTYSLSSTLTLSKADYEKHKVYACEVTHQGLSSPVTKSFNRGEC	1.22	91 % of control (control = 100)	111 % of control (control = 100)			
GpH7-A5/GpH7-B3 variant P331_01G/GpL16-k0 (antibody, human IgG1, kappa, He Ab: heterodimerized anti-glypican-3 IgG1, substitution in one H chain only; also called He Ab P331G) heavy 1: not shown heavy 2: not shown light: DIVMTQSPLSLPVTPGEPASISCQASESLVHSNRNTYLHWYLQKPGQSPQLLIYKVSNRFSGVPDRFSGSGSGTDFTLKISRVEAEDVGVYYCSQNTHVPPTFGQGTKVEIERTVAAPSVFIFPPSDEQLKSGTASVVCLLNNFYPREAKVQWKVDNALQSGNSQESVTEQDSKDSTYSLSSTLTLSKADYEKHKVYACEVTHQGLSSPVTKSFNRGEC	1.88	45.4 % of control (control = 100)	85.3 % of control (control = 100)			
